Measurements: PMC6393287, “The RRM of the kRNA-editing protein TbRGG2 uses multiple surfaces to bind and remodel RNA”

How the values were obtained:
[1] = target: TbRGG2 RRM-Cterm (residues 203–320) (T. brucei); test: SEC; RRM-Cterm at 16 mg/ml mixed with equimolar U20 RNA, Superdex 75; 20 mM Tris-HCl pH 7.5, 150 mM NaCl, 5% glycerol, 1 mM DTT
[2] = target: TbRGG2 RRM-Cterm (residues 203–320) (T. brucei); test: SEC; protein alone at 10 mg/ml on Superdex 75; 20 mM Tris-HCl pH 7.5, 150 mM NaCl, 5% glycerol, 1 mM DTT; elution volume compared with protein standards
TbRGG2 RRM-Cterm W215A = TbRGG2 RRM-Cterm W215A (Trypanosoma brucei, UniProt Q389P7 193-310, W205A); test: FP; FP: 20 mM Tris-HCl pH 7.5, 5% glycerol, 50 mM NaCl (a further '20 mM' printed without component), 1 nM labelled RNA, 25 C; conditions: protein: recombinant; tags: His6 cleaved (thrombin); chain copies: 2; label: 5'-fluorescein (FP)
TbRGG2 RRM W215A = TbRGG2 RRM W215A (Trypanosoma brucei, UniProt Q389P7 193-259, W205A); test: as above; conditions: protein: recombinant; tags: His6 cleaved (thrombin); label: 5'-fluorescein (FP)

| Molecule | stoichiometry N [1] | stoichiometry N [2] | binding result (TbRGG2 RRM-Cterm W215A) | binding result (TbRGG2 RRM W215A) |
| --- | --- | --- | --- | --- |
| TbRGG2 RRM-Cterm (residues 203–320) (domain or fragment) | 2 | 2 | – | – |
| UUUUUUUUUUUUUUUUUUUU (ssRNA) [U20] | – | – | no binding | no binding |
